Like-named read-outs stand apart in the source and are kept apart here. Values belong to the binder of their own block, whether it stands above or below them.
Experiments:
Fc-tagged FZD4 CRD [1] = molecular target: T1, Fc-tagged FZD4 CRD (Homo sapiens, UniProt Q9ULV1)
Target sequence in this assay (Q9ULV1 40-161): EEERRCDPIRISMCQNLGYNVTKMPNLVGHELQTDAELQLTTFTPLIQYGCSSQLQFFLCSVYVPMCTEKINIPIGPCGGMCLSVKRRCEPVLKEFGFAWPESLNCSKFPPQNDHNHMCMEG

Fc-tagged FZD7 CRD [2] = molecular target: T2, Fc-tagged FZD7 CRD (Homo sapiens, UniProt O75084)
Fc-tagged FZD1 CRD = molecular target: T3, Fc-tagged FZD1 CRD (Homo sapiens, UniProt Q9UP38); experiment: SPR; soluble F^P Fab or IgG injected over FZD-Fc immobilised on a GLC sensor by amine coupling; PBS, 0.05% Tween20, 0.5% BSA; 25 °C; 1:1 Langmuir model, global fit; conditions: both partners purified
T3 construct: Frizzled-1, human, cysteine rich domain (CRD); also called FZD1-Fc; source: bought: R and D Systems

Fc-tagged FZD2 CRD [3] = molecular target: T4, Fc-tagged FZD2 CRD (Homo sapiens, UniProt Q14332); experiment: as above; conditions: both partners purified
T4 construct: Frizzled-2, human, cysteine rich domain (CRD); also called FZD2-Fc; source: bought: R and D Systems

Fc-tagged FZD4 CRD [4] = molecular target: T1, Fc-tagged FZD4 CRD; experiment: as above; conditions: both partners purified
Fc-tagged FZD7 CRD [5] = molecular target: T2, Fc-tagged FZD7 CRD; experiment: as above; conditions: both partners purified
Fc-tagged FZD2 CRD [6] = molecular target: T4, Fc-tagged FZD2 CRD

binding result (Fc-tagged FZD4 CRD [1]): binds
B1: FLAg 4+4 (anti-FZD4 paratope) (antibody, V domains shown)
VH: EVQLVESGGGLVQPGGSLRLSCAASGFNSSFYFMHWVRQAPGKGLEWVATVYPYLDYTYYADSVKGRFTISADTSKNTAYLQMNSLRAEDTAVYYCARAFPGSYHPMDYWGQGTLVTVSS
VL: DIQMTQSPSSLSASVGDRVTITCRASQSVSSAVAWYQQKPGKAPKLLIYSASSLYSGVPSRFSGSRSGTDFTLTISSLQPEDFATYYCQQSSYSLITFGQGTKVEIK

binding result (Fc-tagged FZD7 CRD [2]): binds
B2: FLAg 7+7 (anti-FZD7 paratope) (antibody, V domains shown)
VH: EVQLVESGGGLVQPGGSLRLSCAASGFNISSSSMHWVRQAPGKGLEWVASIYSYYGSTYYADSVKGRFTISADTSKNTAYLQMNSLRAEDTAVYYCARWYGMDYWGQGTLVTVSS
VL: DIQMTQSPSSLSASVGDRVTITCRASQSVSSAVAWYQQKPGKAPKLLIYSASSLYSGVPSRFSGSRSGTDFTLTISSLQPEDFATYYCQQPGSWYFPPITFGQGTKVEIK

binding result (Fc-tagged FZD1 CRD): binds
binding result (Fc-tagged FZD2 CRD [3]): binds
binding result (Fc-tagged FZD4 CRD [4]): binds
binding result (Fc-tagged FZD7 CRD [5]): binds
B3: F^P Fab (Fab, V domains shown)
VH: EVQLVESGGGLVQPGGSLRLSCAASGFNIGSSSIHWVRQAPGKGLEWVASIYSAFASTSYADSVKGRFTISADTSKNTAYLQMNSLRAEDTAVYYCARYHFPFGFALDYWGQGTLVTVSS
VL: DIQMTQSPSSLSASVGDRVTITCRASQSVSSAVAWYQQKPGKAPKLLIYSASSLYSGVPSRFSGSRSGTDFTLTISSLQPEDFATYYCQQGVYLFTFGQGTKVEIK
notes: VH as the F^P VH of m1; constant part of the Fab heavy chain; the Fab construct is not described; VL as the F^P VL of m1; constant part of the Fab light chain; Parent paratope of the N-terminal diabody of m1; also called pan-FZD Ab (F^P); source: Expi293F, transient transfection, purified (rProtein A Sepharose)

binding result (Fc-tagged FZD2 CRD [6]): binds
B4: FLAg 2+2 (anti-FZD2 paratope) (antibody, V domains shown)
VH: EVQLVESGGGLVQPGGSLRLSCAASGFNIYYSSIHWVRQAPGKGLEWVASIYPYYGYTYYADSVKGRFTISADTSKNTAYLQMNSLRAEDTAVYYCARYYHYGLDYWGQGTLVTVSS
VL: DIQMTQSPSSLSASVGDRVTITCRASQSVSSAVAWYQQKPGKAPKLLIYSASSLYSGVPSRFSGSRSGTDFTLTISSLQPEDFATYYCQQSYWHSYLITFGQGTKVEIK

From PMC6711705, “Tailored tetravalent antibodies potently and specifically activate Wnt/Frizzled pathways in cells, organoids and mice” (eLife, 2019)
